Test results as given in patent publication US20220211817A1, “CONTROLLED-RELEASE CNP AGONISTS WITH LOW NPR-C BINDING” (ASCENDIS PHARMA GROWTH DISORDERS A/S, priority 2016, published 2022).
Read-outs that look alike come from different tables or passages of the source. Bridge positions count the residues as written; N and C are the ends. Side chains are listed from the residue outwards. Ends that are not written are not given here. reversible linker = not defined here

What was measured:
[1] = Pharmacokinetic profile of CNP-38 after subcutaneous single-dose administration to cynomolgus monkeys; conditions: single s.c. 40 μg/kg
Method: This study was performed in order to test the pharmacokinetics of CNP-38 after subcutaneous (s.c.) administration in cynomolgus monkeys. Three male monkeys (2-4 years old, 3-5 kg) received a single s.c. injection at a dose of 40 μg/kg of CNP-38.
Method: Plasma levels of CNP were analysed using a commercially available competitive radioimmuno-assay (RK-012-03, Phoenix Pharmaceuticals, CA). The assay was applied essentially as described by the manufacturer.
A few changes to the supplied assay protocol were made. These changes included using in-house CNP calibrant and QC samples to secure consistency between assay runs.

[2] = test system: Male Crl:CD1(ICR) mice; experiment: Evaluation of cardiovascular effects in the conscious telemetered mouse (subcutaneous administration); assay type: in vivo; conditions: 800 μg CNP-38 (eq)/kg subcutaneous; for change in MAP at the 5, 15, and 30 min post dose sampling time points (in words): compared to predose
Method: Male Crl:CD1(ICR) mice (age range 8-13 weeks and body weight range 27.3-35.6 g at start of dosing) were surgically implanted with a TA11PA-C10 telemetry transmitter (Data Sciences International (DSI)) in the carotid artery. The body of the transmitter was placed subcutaneously in the lateral flank of the mouse. The mice were dosed subcutaneously in a latin square crossover design with at least 72 hours between dosing occasions. […] At least four mice were included at each dose level. […] Each time point was presented as the average value of five minute's recording prior to the time point. The monitoring period was selected to cover exposure to the test items both prior to and after Tmax.

[3] = test system: healthy volunteers; conditions: Phase 1 study; cited from earlier work
[4] = test system: healthy volunteers; conditions: CNP injection; cited from earlier work
[5] = after iv administration; cited from earlier work
[6] = molecular target: T1, recombinant human NEP (Homo sapiens, UniProt P08473); experiment: Digest of CNP variants by Neutral Endopeptidase in vitro; assay type: in vitro ADME; conditions: 100 μg CNP equivalents/mL, pH 7.4, 37° C., up to 4 days, normalized to mean CNP-34 or CNP-38 half life
T1 construct: purchased Enzo Life Sciences GmbH, Lörrach, Germany
From the text: Samples were taken at different time intervals. […] The resulting reaction products were assigned using HPLC-MS.

[7] = Pharmacokinetic study of permanent conjugate 12 g in cynomolgus monkeys; assay type: in vivo
Method: As internal standard deuterated CNP-38 peptide was used.
After 4 hours incubation at 37° C. […] The eluates were transferred into vials. 10 μL were injected into the UPLC-MS system.

[8] = cynomolgus monkey, in vivo, sc
[9] = Pharmacokinetic study of transient conjugates 10f and 11i in cynomolgus monkeys; conditions: single subcutaneous, 0.146 mg CNP-38 eq/kg
[10] = Pharmacokinetic profile of conjugate 11i after subcutaneous single-dose administration to cynomolgus monkeys; conditions: single s.c. 40 μg CNP-38 eq/kg
Method: As internal standard deuterated CNP-38 conjugate was used.
200 μL of the supernatant were transferred into a new well-plate and evaporated to dryness (under a gentle nitrogen stream at 35° C.). […] After 3 hours incubation at 37° C. […] 10 μL were injected into the UHPLC-MS system.

T1 sequence (P08473 whole entry): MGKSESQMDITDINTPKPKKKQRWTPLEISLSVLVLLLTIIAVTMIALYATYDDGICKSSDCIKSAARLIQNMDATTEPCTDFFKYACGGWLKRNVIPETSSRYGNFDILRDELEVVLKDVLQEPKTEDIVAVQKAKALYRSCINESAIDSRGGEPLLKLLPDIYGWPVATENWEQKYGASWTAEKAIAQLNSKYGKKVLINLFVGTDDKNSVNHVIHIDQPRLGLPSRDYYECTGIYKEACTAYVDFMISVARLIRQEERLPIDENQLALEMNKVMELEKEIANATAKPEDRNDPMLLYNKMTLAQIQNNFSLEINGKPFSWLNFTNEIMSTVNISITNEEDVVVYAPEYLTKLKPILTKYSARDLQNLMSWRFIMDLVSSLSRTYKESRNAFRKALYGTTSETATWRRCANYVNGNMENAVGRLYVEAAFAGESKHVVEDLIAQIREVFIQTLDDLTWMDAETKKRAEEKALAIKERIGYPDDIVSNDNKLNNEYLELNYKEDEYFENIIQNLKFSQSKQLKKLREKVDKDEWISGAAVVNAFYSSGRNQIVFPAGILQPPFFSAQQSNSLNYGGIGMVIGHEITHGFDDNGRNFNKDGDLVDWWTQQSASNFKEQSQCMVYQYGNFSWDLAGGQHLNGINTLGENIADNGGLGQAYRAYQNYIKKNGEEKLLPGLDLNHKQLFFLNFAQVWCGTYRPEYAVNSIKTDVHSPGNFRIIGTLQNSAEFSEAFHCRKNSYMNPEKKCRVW

## CC[C@H](C)[C@@H]1NC(=O)[C@H](CCCNC(=N)N)NC(=O)[C@H](CC(=O)O)NC(=O)[C@H](CC(C)C)NC(=O)[C@H](CCCCN)NC(=O)[C@H](CC(C)C)NC(=O)CNC(=O)[C@H](Cc2ccccc2)NC(=O)[C@@H](NC(=O)CNC(=O)[C@H](CCCCN)NC(=O)[C@H](CO)NC(=O)[C@H](CC(C)C)NC(=O)CNC(=O)[C@H](CCCCN)NC(=O)[C@H](CCCCN)NC(=O)[C@H](CC(N)=O)NC(=O)[C@H](C)NC(=O)CNC(=O)[C@H](CCCCN)NC(=O)[C@H](Cc2ccc(O)cc2)NC(=O)[C@H](CCCCN)NC(=O)[C@H](CCCNC(=N)N)NC(=O)[C@H](C)NC(=O)[C@H](CC(N)=O)NC(=O)[C@@H]2CCCN2C(=O)[C@H](Cc2c[nH]cn2)NC(=O)[C@H](CCC(=O)O)NC(=O)[C@H](CCC(N)=O)NC(=O)[C@@H](N)CC(C)C)CSSC[C@@H](C(=O)O)NC(=O)CNC(=O)[C@H](CC(C)C)NC(=O)CNC(=O)[C@H](CO)NC(=O)[C@H](CCSC)NC(=O)[C@H](CO)NC(=O)CNC1=O [CNP-38, reference compound]
[1]
  tolerability: well tolerated
[2]
  HR (heart rate): not impacted
  MAP 5 min post dose (mean ± SD): 102.0 ± 7.5 mmHg
  MAP 15 min post dose (mean ± SD): 89.5 ± 29.4 mmHg
  MAP 30 min post dose (mean ± SD): 99.5 ± 25.2 mmHg
  change in MAP at the 5, 15, and 30 min post dose sampling time points (in words): significant decrease in MAP
[2]; predose
  MAP predose (mean ± SD): 106.8 ± 13.4 mmHg

## BMN-111: a CNP variant with increased NEP resistance in development for the treatment of achondroplasia (PGQEHPNARKYKGANKKGLSKGCFGLKLDRIGSMSGLGC; disulfide 23-39; chains of the INN, looked up)
[3]
  haemodynamic effect: mild hypotension

## CNP: C-type natriuretic peptide as named in the background section
[4]
  effect on blood pressure and heart rate: transient but significant decrease in both systolic and diastolic blood pressure with a significant increase in heart rate
[5]
  half-life: 2 min

## Permanent Lys16 CNP-34 PEG 5 kDa Conjugate (PNARKYKGANKKGLSK(PEG 5 kDa)GCFGLKLDRIGSMSGLGC; cysteine pairing not given here; UniProt P23582 93-126, looked up, fragment) [Compound 17e]
[6]
  half life norm.: 54.23 h

## Permanent Lys22 CNP-34 PEG 5 kDa Conjugate [Compound 18e]
[6]
  half life norm.: 38.87 h

## Permanent Lys26 CNP-38 PEG4×10 kDa Conjugate [Compound 12g]
[6]
  half life norm.: Almost no proteolysis
[7]; cynomolgus monkey, in vivo
  bioavailability: ca. 50%
  dose site reactions: No dose site reactions were observed
[7]; cynomolgus monkey, in vivo, iv
  half life time of CNP-38 content: approx. 24 h
[7]; single intravenous or subcutaneous, 0.146 mg CNP-38 eq/kg
  tolerability of dose administrations: well tolerated

## Permanent Lys26 CNP-38 PEG 5 kDa Conjugate (LQEHPNARKYKGANKKGLSKGCFGLK(PEG 5 kDa)LDRIGSMSGLGC; cysteine pairing not given here; UniProt P23582 89-126, looked up, fragment) [Compound 19e]
[6]
  half life norm.: 62.76 h

## Permanent N-Terminal CNP-38 PEG 5 kDa Conjugate ({PEG 5 kDa}-LQEHPNARKYKGANKKGLSKGCFGLKLDRIGSMSGLGC; disulfide 22-38; also: permanent PEG attachment; UniProt P23582 89-126, looked up, fragment) [Compound 15e]
[6]
  half life norm.: Almost no proteolysis

## Reversible Lys26 CNP-38 PEG2×20 kDa Conjugate (LQEHPNARKYKGANKKGLSKGCFGLKLDRIGSMSGLGC; not fully specified (residue 26); ends and bridges not checked; also: reversible linker structure not given here; UniProt P23582 89-126, looked up, fragment) [Compound 10f]
[8]
  dose site reactions: No dose site reactions were observed
[9]
  tolerability of dose administrations: well tolerated

## Reversible Lys26 CNP-38 PEG4×10 kDa Conjugate (LQEHPNARKYKGANKKGLSKGCFGLK([reversible linker-PEG 4×10 kDa])LDRIGSMSGLGC; ends and bridges not checked; also: reversible linker structure not given here; UniProt P23582 89-126, looked up, fragment) [Compound 11i]
[10]
  tolerability: well tolerated
[8]
  dose site reactions: No dose site reactions were observed
  terminal half life: 72 to 96 h
[2]
  HR (heart rate): not impacted
  MAP 5 min post dose (mean ± SD): 122.8 ± 5.9 mmHg
  MAP 15 min post dose (mean ± SD): 121.5 ± 7.5 mmHg
  MAP 30 min post dose (mean ± SD): 111.5 ± 13.7 mmHg
  blood pressure (conclusion): did not decrease blood pressure
  change in MAP at the 5, 15, and 30 min post dose sampling time points (in words): same physiological increase in MAP
[9]
  tolerability of dose administrations: well tolerated
